Test results reported in US20150218230.

What was measured:
Assay in all cases: cell_activity
[1] = test system: TALE-nuclease collection F NI-NN-NG (synthetic)
[2] = test system: TALE-nuclease collection F NG-NG-NN (synthetic)
[3] = test system: TALE-nuclease collection F NG-NI-NN (synthetic)
[4] = test system: TALE-nuclease collection F NG-NG-NI (synthetic)
[5] = test system: TALE-nuclease collection F NG-NN-NN (synthetic)
[6] = test system: TALE-nuclease collection F NN-NI-HD (synthetic)
[7] = test system: TALE-nuclease collection F NI-NN-NN (synthetic)
[8] = test system: TALE-nuclease collection F NN-NI-NG (synthetic)
[9] = test system: TALE-nuclease collection F NN-NG-NI (synthetic)
[10] = test system: TALE-nuclease collection F NG-NI-NG (synthetic)
[11] = test system: TALE-nuclease collection F NG-HD-HD (synthetic)
[12] = test system: TALE-nuclease collection F NG-NI-HD (synthetic)
[13] = test system: TALE-nuclease collection F NG-NG-HD (synthetic)
[14] = test system: TALE-nuclease collection F HD-NN-NN (synthetic)
[15] = test system: TALE-nuclease collection F NG-NG-NG (synthetic)
[16] = test system: TALE-nuclease collection F NG-NI-NI (synthetic)
[17] = test system: TALE-nuclease collection F NG-HD-NN (synthetic)
[18] = test system: TALE-nuclease collection F NG-NN-HD (synthetic); details: GFP disruption, mammalian cells, rank 1
[19] = test system: TALE-nuclease collection F NG-NN-NG (synthetic)
[20] = test system: TALE-nuclease collection F HD-NG-HD (synthetic)
[21] = test system: TALE-nuclease collection F NG-HD-NG (synthetic)
[22] = test system: TALE-nuclease collection F NN-NI-NN (synthetic)
[23] = test system: TALE-nuclease collection F NG-HD-NI (synthetic)
[24] = test system: TALE-nuclease collection F NI-NG-HD (synthetic)

## integrated GFP locus TALE-nuclease target
[1]
  activity (% GFP negative cells): 5.9
[2]
  activity (% GFP negative cells): 18.6
[3]
  activity (% GFP negative cells): 17.7
[4]
  activity (% GFP negative cells): 9.4
[5]
  activity (% GFP negative cells): 19.8
[6]
  activity (% GFP negative cells): 5.3
[7]
  activity (% GFP negative cells): 6.2
[8]
  activity (% GFP negative cells): 5.1
[9]
  activity (% GFP negative cells): 7.6
[10]
  activity (% GFP negative cells): 18.3
[11]
  activity (% GFP negative cells): 18.9
[12]
  activity (% GFP negative cells): 22.8
[13]
  activity (% GFP negative cells): 21
[14]
  activity (% GFP negative cells): 4.4
[15]
  activity (% GFP negative cells): 19.5
[16]
  activity (% GFP negative cells): 12.6
[17]
  activity (% GFP negative cells): 6.5
[18]
  activity (% GFP negative cells): 28.8
[19]
  activity (% GFP negative cells): 22.2
[20]
  activity (% GFP negative cells): 3.9
[21]
  activity (% GFP negative cells): 14.7
[22]
  activity (% GFP negative cells): 3.2
[23]
  activity (% GFP negative cells): 4.5
[24]
  activity (% GFP negative cells): 3.6
